# B1: Mothers against decapentaplegic homolog 4 (Homo sapiens), Q13485 (parent)
# chain: MDNMSITNTPTSNDACLSIVHSLMCHRQGGESETFAKRAIESLVKKLKEKKDELDSLITAITTNGAHPSKCVTIQRTLDGRLQVAGRKGFPHVIYARLWRWPDLHKNELKHVKYCQYAFDLKCDSVCVNPYHYERVVSPGIDLSGLTLQSNAPSSMMVKDEYVHDFEGQPSLSTEGHSIQTIQHPPSNRASTETYSTPALLAPSESNATSTANFPNIPVASTSQPASILGGSHSEGLLQIASGPQPGQQQNGFTGQPATYHHNSTTTWTGSRTAPYTPNLPHHQNGHLQHHPPMPPHPGHYWPVHNELAFQPPISNHPAPEYWCSIAYFEMDVQVGETFKVPSSCPIVTVDGYVDPSGGDRFCLGQLSNVHRTEAIERARLHIGKGVQLECKGEGDVWVRCLSDHAVFVQSYYLDREAGRAPGDAVHKIYPSAYIKVFDLRQCHRQMQQQAATAQAAAAAQAAAVAGNIPGPGSVGGIAPAISLSAAAGIGVDDLRRLCILRMSFVKGWGPDYPRQSIKETPCWIEIHLHRALQLLDEVLHTMPIADPQPLD
# partner: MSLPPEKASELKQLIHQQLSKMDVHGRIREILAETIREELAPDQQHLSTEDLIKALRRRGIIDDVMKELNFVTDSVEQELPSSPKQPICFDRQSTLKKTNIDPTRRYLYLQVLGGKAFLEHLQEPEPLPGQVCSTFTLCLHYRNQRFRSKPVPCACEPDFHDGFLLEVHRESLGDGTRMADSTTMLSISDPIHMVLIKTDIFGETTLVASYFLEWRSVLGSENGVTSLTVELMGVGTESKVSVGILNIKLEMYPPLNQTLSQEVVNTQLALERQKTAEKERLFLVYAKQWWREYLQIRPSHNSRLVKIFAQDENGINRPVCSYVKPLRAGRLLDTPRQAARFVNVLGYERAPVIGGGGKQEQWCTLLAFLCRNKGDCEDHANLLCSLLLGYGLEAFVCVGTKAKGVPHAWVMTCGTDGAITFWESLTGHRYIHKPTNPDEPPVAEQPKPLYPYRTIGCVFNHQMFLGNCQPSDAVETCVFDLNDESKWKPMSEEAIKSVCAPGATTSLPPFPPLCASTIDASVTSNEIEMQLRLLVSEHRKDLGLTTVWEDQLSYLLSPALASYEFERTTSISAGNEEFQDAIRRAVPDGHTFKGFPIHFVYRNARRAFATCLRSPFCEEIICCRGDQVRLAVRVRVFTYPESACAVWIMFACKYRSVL
# B2: Mothers against decapentaplegic homolog 4 (Homo sapiens), Q13485 (parent)
# chain: B1 chain
# partner: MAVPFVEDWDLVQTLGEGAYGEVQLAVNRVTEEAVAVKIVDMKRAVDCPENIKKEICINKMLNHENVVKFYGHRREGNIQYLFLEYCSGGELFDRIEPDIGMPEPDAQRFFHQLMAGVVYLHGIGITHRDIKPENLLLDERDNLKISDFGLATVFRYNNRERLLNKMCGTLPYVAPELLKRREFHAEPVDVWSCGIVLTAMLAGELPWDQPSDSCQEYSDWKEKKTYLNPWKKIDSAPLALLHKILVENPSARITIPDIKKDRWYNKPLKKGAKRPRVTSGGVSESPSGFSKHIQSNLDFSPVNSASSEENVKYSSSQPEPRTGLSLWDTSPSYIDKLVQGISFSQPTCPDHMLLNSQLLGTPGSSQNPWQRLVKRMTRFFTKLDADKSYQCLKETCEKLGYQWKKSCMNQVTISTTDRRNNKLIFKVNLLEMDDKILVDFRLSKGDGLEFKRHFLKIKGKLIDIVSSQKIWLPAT
# B3: Mothers against decapentaplegic homolog 4 (Homo sapiens), Q13485 (parent)
# chain: B1 chain
# partner: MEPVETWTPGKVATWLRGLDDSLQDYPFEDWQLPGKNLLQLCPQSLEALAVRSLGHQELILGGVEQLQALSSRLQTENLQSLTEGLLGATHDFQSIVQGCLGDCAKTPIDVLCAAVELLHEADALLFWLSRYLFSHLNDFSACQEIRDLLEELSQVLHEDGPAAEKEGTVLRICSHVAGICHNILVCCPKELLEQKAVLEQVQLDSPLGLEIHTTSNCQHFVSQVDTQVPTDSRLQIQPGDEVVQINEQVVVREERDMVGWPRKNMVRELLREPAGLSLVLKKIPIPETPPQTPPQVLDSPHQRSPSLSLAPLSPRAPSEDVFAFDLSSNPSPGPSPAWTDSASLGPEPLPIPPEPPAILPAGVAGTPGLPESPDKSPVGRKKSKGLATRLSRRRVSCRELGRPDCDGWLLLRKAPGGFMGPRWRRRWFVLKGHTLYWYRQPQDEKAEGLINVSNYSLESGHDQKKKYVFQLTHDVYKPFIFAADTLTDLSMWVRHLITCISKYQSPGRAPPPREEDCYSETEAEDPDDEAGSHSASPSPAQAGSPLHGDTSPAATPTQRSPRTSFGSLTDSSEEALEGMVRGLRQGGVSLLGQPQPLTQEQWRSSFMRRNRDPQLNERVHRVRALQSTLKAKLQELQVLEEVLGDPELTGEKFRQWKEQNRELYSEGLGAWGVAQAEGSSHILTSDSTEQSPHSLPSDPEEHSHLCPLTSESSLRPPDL
# B4: Mothers against decapentaplegic homolog 4 (Homo sapiens), Q13485 (parent)
# chain: B1 chain
# partner: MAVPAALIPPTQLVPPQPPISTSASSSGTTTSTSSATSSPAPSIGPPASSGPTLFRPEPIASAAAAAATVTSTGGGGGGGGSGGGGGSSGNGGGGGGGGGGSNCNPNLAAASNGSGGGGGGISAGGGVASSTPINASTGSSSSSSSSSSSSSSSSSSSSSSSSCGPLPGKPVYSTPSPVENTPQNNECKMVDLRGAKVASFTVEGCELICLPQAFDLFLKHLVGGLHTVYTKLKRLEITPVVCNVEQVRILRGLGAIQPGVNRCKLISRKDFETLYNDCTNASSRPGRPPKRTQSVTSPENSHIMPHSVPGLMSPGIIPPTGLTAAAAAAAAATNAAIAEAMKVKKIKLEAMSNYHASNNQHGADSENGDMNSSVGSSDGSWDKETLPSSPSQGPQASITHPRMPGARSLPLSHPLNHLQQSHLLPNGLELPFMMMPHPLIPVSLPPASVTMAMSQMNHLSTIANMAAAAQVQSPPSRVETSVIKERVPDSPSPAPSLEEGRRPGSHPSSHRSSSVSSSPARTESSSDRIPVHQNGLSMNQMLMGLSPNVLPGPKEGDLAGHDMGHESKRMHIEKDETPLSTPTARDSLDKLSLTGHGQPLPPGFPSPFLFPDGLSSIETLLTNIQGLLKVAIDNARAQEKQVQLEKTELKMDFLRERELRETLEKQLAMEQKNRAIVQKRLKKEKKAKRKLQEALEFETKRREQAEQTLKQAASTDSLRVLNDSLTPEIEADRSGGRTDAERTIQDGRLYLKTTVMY
# B5: Mothers against decapentaplegic homolog 4 (Homo sapiens), Q13485 (parent)
# chain: B1 chain
# partner: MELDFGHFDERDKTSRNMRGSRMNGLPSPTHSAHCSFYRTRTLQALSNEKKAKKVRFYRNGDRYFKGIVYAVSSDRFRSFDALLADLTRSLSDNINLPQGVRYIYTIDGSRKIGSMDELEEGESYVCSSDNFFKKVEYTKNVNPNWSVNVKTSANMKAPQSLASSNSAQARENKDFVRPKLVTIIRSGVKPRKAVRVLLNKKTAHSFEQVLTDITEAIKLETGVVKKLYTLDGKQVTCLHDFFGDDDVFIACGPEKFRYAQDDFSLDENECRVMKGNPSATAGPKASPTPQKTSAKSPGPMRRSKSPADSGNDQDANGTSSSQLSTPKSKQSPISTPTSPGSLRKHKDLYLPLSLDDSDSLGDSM
# B6: Mothers against decapentaplegic homolog 4 (Homo sapiens), Q13485 (parent)
# chain: B1 chain
# partner: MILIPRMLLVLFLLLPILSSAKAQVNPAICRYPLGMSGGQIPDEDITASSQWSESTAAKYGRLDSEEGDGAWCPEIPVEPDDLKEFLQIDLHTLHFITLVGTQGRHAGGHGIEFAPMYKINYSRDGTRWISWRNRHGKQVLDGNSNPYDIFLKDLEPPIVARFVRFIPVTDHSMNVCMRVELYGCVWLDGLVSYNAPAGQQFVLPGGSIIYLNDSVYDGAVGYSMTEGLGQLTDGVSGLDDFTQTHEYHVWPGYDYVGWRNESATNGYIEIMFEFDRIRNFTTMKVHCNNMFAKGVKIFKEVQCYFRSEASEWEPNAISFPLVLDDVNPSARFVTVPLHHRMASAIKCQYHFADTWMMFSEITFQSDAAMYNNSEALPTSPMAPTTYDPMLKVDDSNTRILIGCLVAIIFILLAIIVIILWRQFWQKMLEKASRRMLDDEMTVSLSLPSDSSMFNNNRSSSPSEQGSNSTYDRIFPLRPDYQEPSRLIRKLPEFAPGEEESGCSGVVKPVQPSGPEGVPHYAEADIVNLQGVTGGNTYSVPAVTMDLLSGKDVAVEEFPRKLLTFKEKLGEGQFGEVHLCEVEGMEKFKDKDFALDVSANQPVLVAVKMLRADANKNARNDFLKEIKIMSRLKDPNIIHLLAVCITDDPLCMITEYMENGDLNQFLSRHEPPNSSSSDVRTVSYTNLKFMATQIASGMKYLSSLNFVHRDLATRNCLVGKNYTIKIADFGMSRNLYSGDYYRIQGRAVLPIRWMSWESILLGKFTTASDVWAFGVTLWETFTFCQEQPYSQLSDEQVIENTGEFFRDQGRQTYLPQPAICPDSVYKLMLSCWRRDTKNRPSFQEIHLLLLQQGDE
# Variants of: B1
# Conditions: with cep76_human CEP76, Q8TAP6
row,Variant,effect of a mutation on the interaction
1,D351H,with no effect

# Variants of: B1
# Conditions: with cep76_human CEP76, Q8TAP6
# Remark: another data set of the same source
row,Variant,effect of a mutation on the interaction
1,R361C,with no effect

# Variants of: B1
# Conditions: with cep76_human CEP76, Q8TAP6
# Remark: another data set of the same source
row,Variant,effect of a mutation on the interaction
1,R361H,with no effect

# Variants of: B2
# Conditions: with chk1_human CHEK1, O14757
row,Variant,effect of a mutation on the interaction
1,D351H,with no effect

# Variants of: B2
# Conditions: with chk1_human CHEK1, O14757
# Remark: another data set of the same source
row,Variant,effect of a mutation on the interaction
1,G386D,with no effect

# Variants of: B2
# Conditions: with chk1_human CHEK1, O14757
# Remark: another data set of the same source
row,Variant,effect of a mutation on the interaction
1,R361C,with no effect

# Variants of: B2
# Conditions: with chk1_human CHEK1, O14757
# Remark: another data set of the same source
row,Variant,effect of a mutation on the interaction
1,R361H,with no effect

# Variants of: B3
# Conditions: with cnkr1_human CNKSR1, Q969H4
row,Variant,effect of a mutation on the interaction
1,D351H,with no effect

# Variants of: B3
# Conditions: with cnkr1_human CNKSR1, Q969H4
# Remark: another data set of the same source
row,Variant,effect of a mutation on the interaction
1,G386D,with no effect

# Variants of: B3
# Conditions: with cnkr1_human CNKSR1, Q969H4
# Remark: another data set of the same source
row,Variant,effect of a mutation on the interaction
1,R361C,with no effect

# Variants of: B3
# Conditions: with cnkr1_human CNKSR1, Q969H4
# Remark: another data set of the same source
row,Variant,effect of a mutation on the interaction
1,R361H,with no effect

# Variants of: B4
# Conditions: with dach1_human DACH1, Q9UI36
row,Variant,effect of a mutation on the interaction
1,D351H,with no effect

# Variants of: B4
# Conditions: with dach1_human DACH1, Q9UI36
# Remark: another data set of the same source
row,Variant,effect of a mutation on the interaction
1,G386D,with no effect

# Variants of: B4
# Conditions: with dach1_human DACH1, Q9UI36
# Remark: another data set of the same source
row,Variant,effect of a mutation on the interaction
1,R361C,with no effect

# Variants of: B4
# Conditions: with dach1_human DACH1, Q9UI36
# Remark: another data set of the same source
row,Variant,effect of a mutation on the interaction
1,R361H,with no effect

# Variants of: B5
# Conditions: with dcx_human DCX
row,Variant,effect of a mutation on the interaction
1,D351H,with no effect

# Variants of: B5
# Conditions: with dcx_human DCX
# Remark: another data set of the same source
row,Variant,effect of a mutation on the interaction
1,G386D,with no effect

# Variants of: B5
# Conditions: with dcx_human DCX
# Remark: another data set of the same source
row,Variant,effect of a mutation on the interaction
1,R361C,with no effect

# Variants of: B5
# Conditions: with dcx_human DCX
# Remark: another data set of the same source
row,Variant,effect of a mutation on the interaction
1,R361H,with no effect

# Variants of: B6
# Conditions: with ddr2_human DDR2, Q16832
row,Variant,effect of a mutation on the interaction
1,D351H,with no effect

# Variants of: B6
# Conditions: with ddr2_human DDR2, Q16832
# Remark: another data set of the same source
row,Variant,effect of a mutation on the interaction
1,G386D,with no effect

# Variants of: B6
# Conditions: with ddr2_human DDR2, Q16832
# Remark: another data set of the same source
row,Variant,effect of a mutation on the interaction
1,R361C,with no effect

# Variants of: B6
# Conditions: with ddr2_human DDR2, Q16832
# Remark: another data set of the same source
row,Variant,effect of a mutation on the interaction
1,R361H,with no effect
